# Reference: IntAct's records for PubMed 37100772
# B1: Nucleoprotein (Human coronavirus 229E), P15130 (parent)
# chain: MATVKWADASEPQRGRQGRIPYSLYSPLLVDSEQPWKVIPRNLVPINKKDKNKLIGYWNVQKRFRTRKGKRVDLSPKLHFYYLGTGPHKDAKFRERVEGVVWVAVDGAKTEPTGYGVRRKNSEPEIPHFNQKLPNGVTVVEEPDSRAPSRSQSRSQSRGRGESKPQSRNPSSDRNHNSQDDIMKAVAAALKSLGFDKPQEKDKKSAKTGTPKPSRNQSPASSQTSAKSLARSQSSETKEQKHEMQKPRWKRQPNDDVTSNVTQCFGPRDLDHNFGSAGVVANGVKAKGYPQFAELVPSTAAMLFDSHIVSKESGNTVVLTFTTRVTVPKDHPHLGKFLEELNAFTREMQQHPLLNPSALEFNPSQTSPATAEPVRDEVSIETDIIDEVN
# Variants of: B1
# Settings: with pabp1_human PABPC1, P11940
# Chain of pabp1_human PABPC1, P11940 (P11940 whole entry): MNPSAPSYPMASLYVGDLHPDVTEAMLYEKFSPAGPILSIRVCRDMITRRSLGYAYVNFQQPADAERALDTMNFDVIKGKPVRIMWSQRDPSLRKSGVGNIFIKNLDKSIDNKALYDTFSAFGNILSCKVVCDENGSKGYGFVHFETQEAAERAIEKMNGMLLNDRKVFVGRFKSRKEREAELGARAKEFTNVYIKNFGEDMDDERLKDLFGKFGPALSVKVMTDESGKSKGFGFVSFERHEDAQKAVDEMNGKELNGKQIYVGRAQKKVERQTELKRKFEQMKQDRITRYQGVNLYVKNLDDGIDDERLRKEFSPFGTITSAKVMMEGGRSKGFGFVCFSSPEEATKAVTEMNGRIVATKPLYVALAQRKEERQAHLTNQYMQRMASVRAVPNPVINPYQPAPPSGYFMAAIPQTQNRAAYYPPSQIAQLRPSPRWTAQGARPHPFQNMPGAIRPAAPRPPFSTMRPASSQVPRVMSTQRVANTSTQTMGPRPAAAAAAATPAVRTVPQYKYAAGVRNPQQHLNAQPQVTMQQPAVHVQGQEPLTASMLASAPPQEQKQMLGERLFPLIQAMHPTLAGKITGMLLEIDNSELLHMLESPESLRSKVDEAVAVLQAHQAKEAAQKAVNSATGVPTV
row,Variant,effect of a mutation on the interaction
1,L354A;N355G;P356G;A358G;F361A;N362A;P363G,disrupting interaction strength
